pIC50: −log10 of the molar value.
molecular target: porcine TSH receptor (immobilized, TSH Receptor Autoantibody 2nd Generation ELISA kit, RSR Limited) (porcine) (UniProt Q8SPP9); assay: competition ELISA; inhibition of biotinylated rhTSH binding to immobilized porcine TSH receptor
Sequence (Q8SPP9 22-764 limits assumed): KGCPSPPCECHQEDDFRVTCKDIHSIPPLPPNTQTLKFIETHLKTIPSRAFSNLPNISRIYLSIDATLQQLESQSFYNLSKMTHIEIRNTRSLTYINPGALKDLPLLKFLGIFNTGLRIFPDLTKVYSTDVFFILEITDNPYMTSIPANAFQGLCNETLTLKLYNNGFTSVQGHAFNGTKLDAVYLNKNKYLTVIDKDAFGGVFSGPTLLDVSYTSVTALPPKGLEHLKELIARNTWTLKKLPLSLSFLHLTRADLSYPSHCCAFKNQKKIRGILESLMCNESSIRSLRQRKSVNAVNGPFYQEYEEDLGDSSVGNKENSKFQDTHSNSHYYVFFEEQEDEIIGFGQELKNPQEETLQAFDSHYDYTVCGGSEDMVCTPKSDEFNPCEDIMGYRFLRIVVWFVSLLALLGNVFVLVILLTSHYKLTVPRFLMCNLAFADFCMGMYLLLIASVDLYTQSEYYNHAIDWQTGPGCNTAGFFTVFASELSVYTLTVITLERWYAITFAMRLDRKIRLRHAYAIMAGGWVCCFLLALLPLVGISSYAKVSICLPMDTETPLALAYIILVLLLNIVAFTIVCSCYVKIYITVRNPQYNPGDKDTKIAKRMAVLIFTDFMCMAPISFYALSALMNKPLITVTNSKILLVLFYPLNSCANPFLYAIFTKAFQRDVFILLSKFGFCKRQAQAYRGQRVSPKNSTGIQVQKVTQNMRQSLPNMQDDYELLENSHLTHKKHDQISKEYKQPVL

Sequence of mono-40 kDa NHS PEG-TSH (Lysine PEGylation) (ligand) (P01215 25-116): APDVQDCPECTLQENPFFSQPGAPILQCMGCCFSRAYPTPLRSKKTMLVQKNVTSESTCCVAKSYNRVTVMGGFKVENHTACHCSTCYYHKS
Sequence of mono-40 kDa NHS PEG-TSH (Lysine PEGylation) (ligand) (P01222 21-138, further chain): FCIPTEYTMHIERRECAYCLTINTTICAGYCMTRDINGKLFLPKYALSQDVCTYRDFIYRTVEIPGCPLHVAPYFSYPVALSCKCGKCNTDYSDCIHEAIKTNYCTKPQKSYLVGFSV
Sequence of PEG rhTSH (40 KD SAM), monoPEGylated (ligand) (P01215 25-116): as the sequence (P01215 25-116) above
Sequence of PEG rhTSH (40 KD SAM), monoPEGylated (ligand) (P01222 21-138, further chain): as the sequence (P01222 21-138, further chain) above
Sequence of PEG rhTSH (20 KD GAM+), monoPEGylated (ligand) (P01215 25-116): as the sequence (P01215 25-116) above
Sequence of PEG rhTSH (20 KD GAM+), monoPEGylated (ligand) (P01222 21-138, further chain): as the sequence (P01222 21-138, further chain) above
Sequence of PEG rhTSH (10 KD SAM), monoPEGylated (ligand) (P01215 25-116): as the sequence (P01215 25-116) above
Sequence of PEG rhTSH (10 KD SAM), monoPEGylated (ligand) (P01222 21-138, further chain): as the sequence (P01222 21-138, further chain) above
Sequence of PEG rhTSH (20 KD SAM), monoPEGylated (ligand) (P01215 25-116): as the sequence (P01215 25-116) above
Sequence of PEG rhTSH (20 KD SAM), monoPEGylated (ligand) (P01222 21-138, further chain): as the sequence (P01222 21-138, further chain) above
Sequence of PEG rhTSH (10 KD MultiSAM) (ligand) (P01215 25-116): as the sequence (P01215 25-116) above
Sequence of PEG rhTSH (10 KD MultiSAM) (ligand) (P01222 21-138, further chain): as the sequence (P01222 21-138, further chain) above
Sequence of PEG rhTSH (40 KD GAM+), monoPEGylated (ligand) (P01215 25-116): as the sequence (P01215 25-116) above
Sequence of PEG rhTSH (40 KD GAM+), monoPEGylated (ligand) (P01222 21-138, further chain): as the sequence (P01222 21-138, further chain) above
Sequence of PEG rhTSH (20 KD GAM-), monoPEGylated (ligand) (P01215 25-116): as the sequence (P01215 25-116) above
Sequence of PEG rhTSH (20 KD GAM-), monoPEGylated (ligand) (P01222 21-138, further chain): as the sequence (P01222 21-138, further chain) above
Sequence of PEG rhTSH (40 KD GAM-), monoPEGylated (ligand) (P01215 25-116): as the sequence (P01215 25-116) above
Sequence of PEG rhTSH (40 KD GAM-), monoPEGylated (ligand) (P01222 21-138, further chain): as the sequence (P01222 21-138, further chain) above

Substance	pIC50	fold change (IC50 against rhTSH) [fold]
PEG rhTSH (20 KD GAM+), monoPEGylated (ligand)	7.09	2.2
PEG rhTSH (20 KD GAM-), monoPEGylated (ligand)	7.00	2.7
mono-40 kDa NHS PEG-TSH (Lysine PEGylation) (ligand)	6.06	31.2
PEG rhTSH (10 KD MultiSAM) (ligand)	6.86	3.8
PEG rhTSH (20 KD SAM), monoPEGylated (ligand)	7.03	2.5
PEG rhTSH (40 KD SAM), monoPEGylated (ligand)	6.71	5.3
PEG rhTSH (40 KD GAM+), monoPEGylated (ligand)	6.88	3.6
PEG rhTSH (10 KD SAM), monoPEGylated (ligand)	7.11	2.1
PEG rhTSH (40 KD GAM-), monoPEGylated (ligand)	6.53	8
